Measured values from PMC6123635, “Molecular basis for governing the morphology of type-I collagen fibrils by Osteomodulin” (Communications Biology, 2018).

Assays:
[1] = biological target: Type-I collagen (VitroCol, human) (human) (UniProt P02452)
[2] = biological target: Type-I collagen (VitroCol, human) (human) (UniProt P02452); experiment: SPR; collagen immobilised on CM5 chip at around 8000 RU; OMD or muteins injected (0.125-2 µM), 30 µl/min; PBS pH 7.4, 0.005% Tween-20, 20 °C; KD by steady state analysis; binding response at 2 µM
[3] = biological target: T1, Type-I collagen (VitroCol, human) (human, UniProt P02452 162-1218; P08123 80-1119); experiment: as above; details: both partners purified
T1 construct: collagen alpha-1(I) chain, human; collagen alpha-2(I) chain, human; the enzyme treatment of the manufacturer may have removed the telopeptides; in immunoelectron microscopy the collagen had been incubated to form fibrils; also called collagen molecules; collagen fibrils; source: bought: Advanced BioMatrix (VitroCol), secreted from human neo-natal fibroblast cells, purified by enzyme treatment

[4] = biological target: T1, Type-I collagen (VitroCol, human); experiment: SPR; temperature dependence of the dissociation constant, van't Hoff analysis; values given at 32 °C; details: both partners purified
[5] = biological target: T1, Type-I collagen (VitroCol, human); experiment: cell-based or functional assay

T1 sequence (P02452 162-1218, chain 1 of 2): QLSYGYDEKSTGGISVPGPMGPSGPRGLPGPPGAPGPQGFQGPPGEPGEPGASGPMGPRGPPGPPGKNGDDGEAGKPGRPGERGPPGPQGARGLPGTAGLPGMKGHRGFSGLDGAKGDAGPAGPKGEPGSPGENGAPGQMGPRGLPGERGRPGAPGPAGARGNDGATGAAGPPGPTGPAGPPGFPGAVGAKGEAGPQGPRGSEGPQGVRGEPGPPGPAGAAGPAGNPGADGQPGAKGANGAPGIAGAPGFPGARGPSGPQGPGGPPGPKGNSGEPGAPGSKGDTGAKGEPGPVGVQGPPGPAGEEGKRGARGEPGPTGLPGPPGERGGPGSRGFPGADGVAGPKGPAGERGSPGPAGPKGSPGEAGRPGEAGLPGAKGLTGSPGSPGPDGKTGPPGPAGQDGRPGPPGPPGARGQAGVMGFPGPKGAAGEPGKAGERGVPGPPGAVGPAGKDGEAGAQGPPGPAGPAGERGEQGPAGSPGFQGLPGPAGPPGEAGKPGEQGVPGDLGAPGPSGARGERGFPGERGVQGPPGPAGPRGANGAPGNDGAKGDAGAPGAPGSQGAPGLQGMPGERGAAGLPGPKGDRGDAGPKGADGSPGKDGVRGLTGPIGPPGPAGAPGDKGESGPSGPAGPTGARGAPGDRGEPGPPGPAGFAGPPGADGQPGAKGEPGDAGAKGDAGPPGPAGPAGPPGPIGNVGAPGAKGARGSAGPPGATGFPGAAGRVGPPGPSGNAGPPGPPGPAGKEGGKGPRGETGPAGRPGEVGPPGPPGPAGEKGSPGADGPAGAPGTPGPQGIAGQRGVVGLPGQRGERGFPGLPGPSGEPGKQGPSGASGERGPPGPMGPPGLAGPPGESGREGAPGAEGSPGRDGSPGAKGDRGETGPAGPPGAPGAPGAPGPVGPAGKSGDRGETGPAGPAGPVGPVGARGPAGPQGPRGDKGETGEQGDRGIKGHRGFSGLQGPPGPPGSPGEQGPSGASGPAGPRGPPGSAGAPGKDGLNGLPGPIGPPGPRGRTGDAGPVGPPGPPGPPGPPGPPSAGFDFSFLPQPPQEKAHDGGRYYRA
T1 sequence (P08123 80-1119, chain 2 of 2): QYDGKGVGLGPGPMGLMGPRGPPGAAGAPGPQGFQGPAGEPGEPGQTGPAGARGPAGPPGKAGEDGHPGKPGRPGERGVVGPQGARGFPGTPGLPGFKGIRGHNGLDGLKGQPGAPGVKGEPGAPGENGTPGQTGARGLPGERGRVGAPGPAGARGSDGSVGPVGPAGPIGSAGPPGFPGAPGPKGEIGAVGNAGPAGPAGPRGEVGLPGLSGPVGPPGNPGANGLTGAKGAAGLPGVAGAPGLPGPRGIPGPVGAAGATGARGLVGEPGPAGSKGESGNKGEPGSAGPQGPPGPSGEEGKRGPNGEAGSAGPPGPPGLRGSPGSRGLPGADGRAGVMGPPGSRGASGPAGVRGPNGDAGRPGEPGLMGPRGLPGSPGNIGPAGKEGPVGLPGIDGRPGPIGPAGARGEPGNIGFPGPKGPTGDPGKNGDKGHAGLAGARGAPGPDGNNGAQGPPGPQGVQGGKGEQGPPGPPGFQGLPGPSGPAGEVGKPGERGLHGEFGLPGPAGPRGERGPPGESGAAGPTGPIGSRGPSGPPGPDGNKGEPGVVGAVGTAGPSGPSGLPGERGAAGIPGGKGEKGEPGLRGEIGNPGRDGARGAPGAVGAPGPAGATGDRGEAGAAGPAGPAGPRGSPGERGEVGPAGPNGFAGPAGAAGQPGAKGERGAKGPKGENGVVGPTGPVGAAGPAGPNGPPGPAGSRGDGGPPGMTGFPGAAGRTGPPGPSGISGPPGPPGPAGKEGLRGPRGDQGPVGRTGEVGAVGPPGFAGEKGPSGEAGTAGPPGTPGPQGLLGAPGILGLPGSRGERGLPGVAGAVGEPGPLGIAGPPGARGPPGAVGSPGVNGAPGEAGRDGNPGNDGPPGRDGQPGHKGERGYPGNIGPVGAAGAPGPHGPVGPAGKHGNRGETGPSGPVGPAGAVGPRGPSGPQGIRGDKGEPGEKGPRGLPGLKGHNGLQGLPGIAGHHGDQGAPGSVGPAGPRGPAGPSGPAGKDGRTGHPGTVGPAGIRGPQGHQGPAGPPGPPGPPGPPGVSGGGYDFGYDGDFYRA
Chain of Type-I collagen (VitroCol, human) (human) (P02452 162-1218, chain 1 of 2): as the sequence (P02452 162-1218, chain 1 of 2) above
Chain of Type-I collagen (VitroCol, human) (human) (P08123 80-1119, chain 2 of 2, further chain): as the sequence (P08123 80-1119, chain 2 of 2) above

| Molecule | IC50 (µM) of inhibition of collagen fibril formation (normalized kobs, 1 µM collagen, PBS pH 7.4, 30 °C) [1] [μM] | Binding (RU) at 2 µM [2] [RU] | Kd [2] [µM] | other results |
| --- | --- | --- | --- | --- |
| Chimeric OMD (chOMD): N-terminal region of the leucine-rich repeat domain of internalin B fused to a large portion of OMD (from UniProt Q99983 117-364) | 0.22 | 118 | 25.4 | kobs (per h) of collagen fibril formation with 0, 0.016, 0.08, 0.4, 2 and 10 μM chOMD (0.89 down to 0.00) [1]: 0.89 per h |
| chOMD D254R (from UniProt Q99983 117-364) |  | 74.8 | 22.3 |  |
| chOMD D271R (from UniProt Q99983 117-364) |  | 71 | 25.6 |  |
| chOMD E173R (from UniProt Q99983 117-364) |  | 118 | 51.4 |  |
| chOMD E225R (from UniProt Q99983 117-364) |  | 106 | 29.1 |  |
| chOMD E284A (from UniProt Q99983 117-364) | 0.32 | 57.4 | 78.3 | kobs (per h) of collagen fibril formation with 0, 0.016, 0.08, 0.4, 2 and 10 μM chE284A (1.02 down to 0.00003) [1]: 1.02 per h |
| chOMD E284R (from UniProt Q99983 117-364) | 0.61 | 22.3 | 32000 | kobs (per h) of collagen fibril formation with 0, 0.016, 0.08, 0.4, 2 and 10 μM chE284R (0.90 down to 0.00028) [1]: 0.9 per h |
| chOMD E284R/E303R (from UniProt Q99983 117-364) | 2.18 |  |  | kobs (per h) of collagen fibril formation with 0, 0.016, 0.08, 0.4, 2 and 10 μM chE284R/E303R (1.00 down to 0.65) [1]: 1 per h |
| chOMD E303A (from UniProt Q99983 117-364) | 0.37 |  |  | kobs (per h) of collagen fibril formation with 0, 0.016, 0.08, 0.4 and 2 μM chE303A (1.32 down to 0.51; n.d. at 10 μM) [1]: 1.32 per h |
| chOMD E303R (from UniProt Q99983 117-364) | 1.87 | 3.7 | 72.4 | kobs (per h) of collagen fibril formation with 0, 0.016, 0.08, 0.4, 2 and 10 μM chE303R (1.35 down to 0.10) [1]: 1.35 per h |
| chOMD E311R (from UniProt Q99983 117-364) |  | 22.6 | 5.48 |  |
| chOMD N278R (from UniProt Q99983 117-364) |  | 47.4 | 14.3 |  |
| Osteomodulin (OMD), human, recombinant with C-terminal FLAG-tag (natural protein, UniProt Q99983 21-421, looked up, osteomodulin (OMD), human, without residues 1-20 (signal peptide), residues 21-421; Its own signal peptide was replaced by the sp1-2 signal peptide for secretion; Carbohydrate is modelled in the crystal structure; Monomer by SEC-MALS; also called full-length OMD; WT OMD; source: Sf9 cells, baculovirus, secreted; not shown: FLAG, C-terminal, kept) QYETYQWDEDYDQEPDDDYQTGFPFRQNVDYGVPFHQYTLGCVSECFCPTNFPSSMYCDNRKLKTIPNIPMHIQQLYLQFNEIEAVTANSFINATHLKEINLSHNKIKSQKIDYGVFAKLPNLLQLHLEHNNLEEFPFPLPKSLERLLLGYNEISKLQTNAMDGLVNLTMLDLCYNYLHDSLLKDKIFAKMEKLMQLNLCSNRLESMPPGLPSSLMYLSLENNSISSIPEKYFDKLPKLHTLRMSHNKLQDIPYNIFNLPNIVELSVGHNKLKQAFYIPRNLEHLYLQNNEIEKMNLTVMCPSIDPLHYHHLTYIRVDQNKLKEPISSYIFFCFPHIHTIYYGEQRSTNGQTIQLKTQVFRRFPDDDDESEDHDDPDNAHESPEQEGAEGHFDLHYYENQE |  |  |  | Kd [3]: 24.6 µM; Kd [4]: 12 µM; dH [4]: 7.9 kcal/mol; IC50 (µM) of inhibition of collagen fibril formation (normalized kobs, 1 µM collagen, PBS pH 7.4, 30 °C) [5]: 0.08 μM |
| OMD E284R/E303R (double mutant in the construct of full-length OMD) (natural protein, human, UniProt Q99983 21-421, looked up) QYETYQWDEDYDQEPDDDYQTGFPFRQNVDYGVPFHQYTLGCVSECFCPTNFPSSMYCDNRKLKTIPNIPMHIQQLYLQFNEIEAVTANSFINATHLKEINLSHNKIKSQKIDYGVFAKLPNLLQLHLEHNNLEEFPFPLPKSLERLLLGYNEISKLQTNAMDGLVNLTMLDLCYNYLHDSLLKDKIFAKMEKLMQLNLCSNRLESMPPGLPSSLMYLSLENNSISSIPEKYFDKLPKLHTLRMSHNKLQDIPYNIFNLPNIVRLSVGHNKLKQAFYIPRNLRHLYLQNNEIEKMNLTVMCPSIDPLHYHHLTYIRVDQNKLKEPISSYIFFCFPHIHTIYYGEQRSTNGQTIQLKTQVFRRFPDDDDESEDHDDPDNAHESPEQEGAEGHFDLHYYENQE |  |  |  | IC50 (µM) of inhibition of collagen fibril formation (normalized kobs, 1 µM collagen, PBS pH 7.4, 30 °C) [5]: 0.29 μM |
